Data as given in IntAct's records for PubMed 31515488.

B1: Zinc finger and BTB domain-containing protein 49 (Homo sapiens), Q6ZSB9 (parent)
chain: MDPVATHSCHLLQQLHEQRIQGLLCDCMLVVKGVCFKAHKNVLAAFSQYFRSLFQNSSSQKNDVFHLDVKNVSGIGQILDFMYTSHLDLNQDNIQVMLDTAQCLQVQNVLSLCHTFLKSATVVQPPGMPCNSTLSLQSTLTPDATCVISENYPPHLLQECSADAQQNKTLDESHPHASPSVNRHHSAGEISKQAPDTSDGSCTELPFKQPNYYYKLRNFYSKQYHKHAAGPSQERVVEQPFAFSTSTDLTTVESQPCAVSHSECILESPEHLPSNFLAQPVNDSAPHPESDATCQQPVKQMRLKKAIHLKKLNFLKSQKYAEQVSEPKSDDGLTKRLESASKNTLEKASSQSAEEKESEEVVSCENFNCISETERPEDPAALEDQSQTLQSQRQYACELCGKPFKHPSNLELHKRSHTGEKPFECNICGKHFSQAGNLQTHLRRHSGEKPYICEICGKRFAASGDVQRHIIIHSGEKPHLCDICGRGFSNFSNLKEHKKTHTADKVFTCDECGKSFNMQRKLVKHRIRHTGERPYSCSACGKCFGGSGDLRRHVRTHTGEKPYTCEICNKCFTRSAVLRRHKKMHCKAGDESPDVLEELSQAIETSDLEKSQSSDSFSQDTSVTLMPVSVKLPVHPVENSVAEFDSHSGGSYCKLRSMIQPHGVSDQEKLSLDPGKLAKPQMQQTQPQAYAYSDVDTPAGGEPLQADGMAMIRSSLAALDNHGGDPLGSRASSTTYRNSEGQFFSSMTLWGLAMKTLQNENELDQ
B2: Max-like protein X (Homo sapiens), Q9UH92 (parent)
chain: MTEPGASPEDPWVKASPVGAHAGEGRAGRARARRGAGRRGASLLSPKSPTLSVPRGCREDSSHPACAKVEYAYSDNSLDPGLFVESTRKGSVVSRANSIGSTSASSVPNTDDEDSDYHQEAYKESYKDRRRRAHTQAEQKRRDAIKRGYDDLQTIVPTCQQQDFSIGSQKLSKAIVLQKTIDYIQFLHKEKKKQEEEVSTLRKDVTALKIMKVNYEQIVKAHQDNPHEGEDQVSDQVKFNVFQGIMDSLFQSFNASISVASFQELSACVFSWIEEHCKPQTLREIVIGVLHQLKNQLY
partner: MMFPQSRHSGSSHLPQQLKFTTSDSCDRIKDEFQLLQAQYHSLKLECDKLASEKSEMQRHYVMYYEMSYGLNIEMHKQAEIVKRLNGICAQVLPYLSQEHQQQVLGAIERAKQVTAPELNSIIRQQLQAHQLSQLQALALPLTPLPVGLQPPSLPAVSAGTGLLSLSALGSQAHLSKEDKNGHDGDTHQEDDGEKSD
B3: Germ cell-less protein-like 1 (Homo sapiens), Q96IK5 (parent)
chain: MGSLSSRVLRQPRPALAQQAQGARAGGSARRPDTGDDAAGHGFCYCAGSHKRKRSSGSFCYCHPDSETDEDEEEGDEQQRLLNTPRRKKLKSTSKYIYQTLFLNGENSDIKICALGEEWSLHKIYLCQSGYFSSMFSGSWKESSMNIIELEIPDQNIDVEALQVAFGSLYRDDVLIKPSRVVAILAAACLLQLDGLIQQCGETMKETVNVKTVCGYYTSAGTYGLDSVKKKCLEWLLNNLMTHQNVELFKELSINVMKQLIGSSNLFVMQVEMDIYTALKKWMFLQLVPSWNGSLKQLLTETDVWFSKQRKDFEGMAFLETEQGKPFVSVFRHLRLQYIISDLASARIIEQDAVVPSEWLSSVYKQQWFAMLRAEQDSEVGPQEINKEELEGNSMRCGRKLAKDGEYCWRWTGFNFGFDLLVTYTNRYIIFKRNTLNQPCSGSVSLQPRRSIAFRLRLASFDSSGKLICSRTTGYQILTLEKDQEQVVMNLDSRLLIFPLYICCNFLYISPEKKN
B4: Hypoxia-inducible factor 1-alpha inhibitor (Homo sapiens), Q9NWT6 (parent)
chain: MAATAAEAVASGSGEPREEAGALGPAWDESQLRSYSFPTRPIPRLSQSDPRAEELIENEEPVVLTDTNLVYPALKWDLEYLQENIGNGDFSVYSASTHKFLYYDEKKMANFQNFKPRSNREEMKFHEFVEKLQDIQQRGGEERLYLQQTLNDTVGRKIVMDFLGFNWNWINKQQGKRGWGQLTSNLLLIGMEGNVTPAHYDEQQNFFAQIKGYKRCILFPPDQFECLYPYPVHHPCDRQSQVDFDNPDYERFPNFQNVVGYETVVGPGDVLYIPMYWWHHIESLLNGGITITVNFWYKGAPTPKRIEYPLKAHQKVAIMRNIEKMLGEALGNPQEVGPLLNTMIKGRYN
B5: Glutathione S-transferase Mu 5 (Homo sapiens), P46439 (parent)
chain: MPMTLGYWDIRGLAHAIRLLLEYTDSSYVEKKYTLGDAPDYDRSQWLNEKFKLGLDFPNLPYLIDGAHKITQSNAILRYIARKHNLCGETEEEKIRVDILENQVMDNHMELVRLCYDPDFEKLKPKYLEELPEKLKLYSEFLGKRPWFAGDKITFVDFLAYDVLDMKRIFEPKCLDAFLNLKDFISRFEGLKKISAYMKSSQFLRGLLFGKSATWNSK

Variants of: B1
Conditions: with gopc_human GOPC

Row | effect of a mutation on the interaction | Variant
1 | with no effect | P627A
2 | with no effect | C294R
3 | with no effect | Y320S

Variants of: B1
Conditions: with cep70_human CEP70, Q8NHQ1
Chain of cep70_human CEP70, Q8NHQ1 (Q8NHQ1 whole entry): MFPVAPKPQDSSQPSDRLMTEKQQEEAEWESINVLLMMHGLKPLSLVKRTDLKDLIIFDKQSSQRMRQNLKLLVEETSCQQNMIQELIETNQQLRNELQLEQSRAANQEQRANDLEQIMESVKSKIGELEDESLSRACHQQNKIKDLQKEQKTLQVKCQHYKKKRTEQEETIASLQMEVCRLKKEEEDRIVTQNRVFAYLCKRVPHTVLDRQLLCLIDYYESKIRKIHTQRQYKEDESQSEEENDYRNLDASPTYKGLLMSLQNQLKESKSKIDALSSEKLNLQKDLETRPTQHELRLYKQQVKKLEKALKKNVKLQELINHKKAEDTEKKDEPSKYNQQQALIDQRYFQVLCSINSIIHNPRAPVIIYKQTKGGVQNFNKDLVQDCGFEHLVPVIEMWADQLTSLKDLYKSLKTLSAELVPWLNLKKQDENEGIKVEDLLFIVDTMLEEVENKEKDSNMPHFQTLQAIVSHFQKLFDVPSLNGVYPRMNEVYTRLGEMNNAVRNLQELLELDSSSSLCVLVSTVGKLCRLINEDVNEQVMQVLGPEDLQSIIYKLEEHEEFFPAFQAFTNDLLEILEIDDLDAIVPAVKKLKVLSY

Row | effect of a mutation on the interaction | Variant
4 | with no effect | P627A
5 | with no effect | C294R
6 | disrupting interaction strength | Y320S

Variants of: B2
Conditions: with tle5_human TLE5, Q08117

Row | effect of a mutation on the interaction | Variant
7 | with no effect | MTEPGASPEDPWVKASPVGAHAGEGRAGRARARRGAGRRGASLLSPKSPTLSVPRGCREDSSHPACAKVEYAYSDNSLDPGLFVESTRKGSVVSRANSIGSTSASSVPNTDDEDSDYHQEAYKESYKDRRRRAHTQAEQKRRDAIKRGYDDLQTIVPTCQQQDFSIGSQKLSKAIVLQKTIDYIQFLHKEKKKQEEEVSTLRKDVTALKIMKVNYEQIVKAHRDNPHEGEDQVSDQVKFNVFQGIMDSLFQSFNASISVASFQELSACVFSWIEEHCKPQTLREIVIGVLHQLKNQLY [Q223R]

Variants of: B3
Conditions: with cul3_human CUL3, Q13618

Row | effect of a mutation on the interaction | Variant
8 | with no effect | MGSLSSRVLRQPRPALAQQAQGARAGGSARRPDTGDDAAGHGFCYCAGSHKRKRSSGSFCYCHPDSETDEDEEEGDEQQRLLNTPRRKKLKSTSKYIYQTLFLNGENSDIKICALGEEWSLHKIYLCQSGYFSSMFSGSWKESSMNIIELEIPDQNIDVEALQVAFGSLYRDDVLIKPSRVVAILAAACLLQLDGLIQQCGETMKETVNVKTVCGYYTSAGTYGLDSVKKKCLEWLLNNLMTHQNVELFKELSINVMKQLIGSSNLFVMQVEMDIYTALKKWMFLQLVPSWNGSLKQLLTETDVWFSKQRKDFEGMAFLETEQGKPFVSVFRHLRLQYIISDLASARIIEQDAVVPSEWLSSVYKQQWFAMLRAEQDSEVGPQEINKEELEGNSMRCGRKLAKDGEYCWRWTGFNFGFDLLVTYTNRYIIFKRNTLNQPCSGSVSLQPQRSIAFRLRLASFDSSGKLICSRTTGYQILTLEKDQEQVVMNLDSRLLIFPLYICCNFLYISPEKKN [R449Q]
9 | with no effect | MGSLSSRVLRQPRPALAQQAQGARAGGSARRPDTGDDAAGHGFCYCAGSHKRKRSSGSFCYCHPDSETDEDEEEGDEQQRLLNTPRRKKLKSTSKYIYQTLFLNGENSDIKICALGEEWSLHKIYLCQSGYFSSMFSGSWKESSMNIIELEIPDQNIDVEALQVAFGSLYRDDVLIKPSRVVAILAAACLLQLDGLIQQCGETMKETVNVKTVCGYYTSAGTYGLDSVKKKCLEWLLNNLMTHQNVELFKELSINVMKQLIGSSNLFVMQVEMDIYTALKKWMFLQLVPSWNGSLKQLLTETDVWFSKQRKDFEGMAFLETEQGKPFVSVFRHLRLQYIISDLASARIIEQDAVVPSEWLSSVYKQQWFAMLRAEQDSEVGPQEINKEELEGNSMRCGRKLAKDGEYCWRWTGFNFGFDLLVTYTNRYIIFKRNTLNQPCSGSVSLQPRRSIAFRLHLASFDSSGKLICSRTTGYQILTLEKDQEQVVMNLDSRLLIFPLYICCNFLYISPEKKN [R457H]

Variants of: B3
Conditions: with FAM167A

Row | effect of a mutation on the interaction | Variant
10 | with no effect | MGSLSSRVLRQPRPALAQQAQGARAGGSARRPDTGDDAAGHGFCYCAGSHKRKRSSGSFCYCHPDSETDEDEEEGDEQQRLLNTPRRKKLKSTSKYIYQTLFLNGENSDIKICALGEEWSLHKIYLCQSGYFSSMFSGSWKESSMNIIELEIPDQNIDVEALQVAFGSLYRDDVLIKPSRVVAILAAACLLQLDGLIQQCGETMKETVNVKTVCGYYTSAGTYGLDSVKKKCLEWLLNNLMTHQNVELFKELSINVMKQLIGSSNLFVMQVEMDIYTALKKWMFLQLVPSWNGSLKQLLTETDVWFSKQRKDFEGMAFLETEQGKPFVSVFRHLRLQYIISDLASARIIEQDAVVPSEWLSSVYKQQWFAMLRAEQDSEVGPQEINKEELEGNSMRCGRKLAKDGEYCWRWTGFNFGFDLLVTYTNRYIIFKRNTLNQPCSGSVSLQPQRSIAFRLRLASFDSSGKLICSRTTGYQILTLEKDQEQVVMNLDSRLLIFPLYICCNFLYISPEKKN [R449Q]
11 | disrupting interaction strength | MGSLSSRVLRQPRPALAQQAQGARAGGSARRPDTGDDAAGHGFCYCAGSHKRKRSSGSFCYCHPDSETDEDEEEGDEQQRLLNTPRRKKLKSTSKYIYQTLFLNGENSDIKICALGEEWSLHKIYLCQSGYFSSMFSGSWKESSMNIIELEIPDQNIDVEALQVAFGSLYRDDVLIKPSRVVAILAAACLLQLDGLIQQCGETMKETVNVKTVCGYYTSAGTYGLDSVKKKCLEWLLNNLMTHQNVELFKELSINVMKQLIGSSNLFVMQVEMDIYTALKKWMFLQLVPSWNGSLKQLLTETDVWFSKQRKDFEGMAFLETEQGKPFVSVFRHLRLQYIISDLASARIIEQDAVVPSEWLSSVYKQQWFAMLRAEQDSEVGPQEINKEELEGNSMRCGRKLAKDGEYCWRWTGFNFGFDLLVTYTNRYIIFKRNTLNQPCSGSVSLQPRRSIAFRLHLASFDSSGKLICSRTTGYQILTLEKDQEQVVMNLDSRLLIFPLYICCNFLYISPEKKN [R457H]

Variants of: B4
Conditions: with asb9_human ASB9, Q96DX5
Chain of asb9_human ASB9, Q96DX5 (Q96DX5 whole entry): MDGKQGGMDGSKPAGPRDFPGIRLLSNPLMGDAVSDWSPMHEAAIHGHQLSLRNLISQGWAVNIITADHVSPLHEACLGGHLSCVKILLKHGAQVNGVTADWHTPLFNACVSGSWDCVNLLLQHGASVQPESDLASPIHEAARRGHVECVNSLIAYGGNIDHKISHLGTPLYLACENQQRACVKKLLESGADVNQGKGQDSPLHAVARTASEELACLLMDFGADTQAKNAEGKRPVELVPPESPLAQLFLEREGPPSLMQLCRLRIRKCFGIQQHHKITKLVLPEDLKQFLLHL

Row | effect of a mutation on the interaction | Variant
12 | with no effect | P41A

Variants of: B5
Conditions: with amol2_human AMOTL2, Q9Y2J4
Chain of amol2_human AMOTL2, Q9Y2J4 (Q9Y2J4 whole entry): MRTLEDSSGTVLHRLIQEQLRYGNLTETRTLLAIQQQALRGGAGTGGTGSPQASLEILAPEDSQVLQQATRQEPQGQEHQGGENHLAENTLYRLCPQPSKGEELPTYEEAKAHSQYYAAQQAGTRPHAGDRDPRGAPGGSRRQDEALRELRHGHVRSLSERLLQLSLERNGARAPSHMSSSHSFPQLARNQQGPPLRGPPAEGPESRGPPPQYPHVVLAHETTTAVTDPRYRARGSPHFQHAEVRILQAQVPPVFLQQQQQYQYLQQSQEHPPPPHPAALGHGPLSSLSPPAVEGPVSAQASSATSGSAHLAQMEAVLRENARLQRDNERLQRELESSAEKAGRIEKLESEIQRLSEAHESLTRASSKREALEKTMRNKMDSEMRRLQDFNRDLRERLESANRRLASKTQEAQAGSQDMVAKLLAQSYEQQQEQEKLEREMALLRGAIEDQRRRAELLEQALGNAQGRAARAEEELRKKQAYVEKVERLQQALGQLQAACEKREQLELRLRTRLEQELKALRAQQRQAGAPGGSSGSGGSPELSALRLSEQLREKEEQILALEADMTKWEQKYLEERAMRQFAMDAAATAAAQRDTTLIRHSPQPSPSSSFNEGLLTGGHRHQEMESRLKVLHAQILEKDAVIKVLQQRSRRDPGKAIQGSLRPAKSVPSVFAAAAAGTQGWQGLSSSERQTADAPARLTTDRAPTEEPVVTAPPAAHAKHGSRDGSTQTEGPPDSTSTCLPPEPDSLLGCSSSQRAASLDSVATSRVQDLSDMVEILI

Row | effect of a mutation on the interaction | Variant
13 | with no effect | MPMTLGYWDIRGLAHAIRLLLEYTDSSYVEKKYTLGDAPDYDRSQWLNEKFKLGLDFPNLPYLIDGAHKITQSNAILRYIARKHNLCGETEEEKIRVDILENQVMDNHMELVRLCYDPDFEKLKPKYLEELPEKLKLYSEFLGKRPWFAGDKITFVDFLAYDVLDMKRIFEPKCLDAFPNLKDFISRFEGLKKISAYMKSSQFLRGLLFGKSATWNSK [L179P]
